In PMC5988984 one finds stoichiometry N data, which are given here for one substance.

The target in this experiment is HIV-1 reverse transcriptase p66 (HIV-1). As to the kind of experiment: SEC.

Take “HIV-1 reverse transcriptase p66 (enzyme)”: the stoichiometry N was 2.
